{"source": "paper PMC7886694", "key": {"His-PrpR": {"system": "His-PrpR", "experiment": "BLI", "conditions": "37 C, 200 mM KCl, 2 mM Mg2+, BLI: 10 mM HEPES pH 8.0, 2 mM MgCl2, 0.1 mM EDTA, 10 ug/ml BSA, 0.02% Tween-20 (running buffer), EMSA: 2 ng biotin probe in 10 uL, Beyotime …"}, "[1]": {"system": "His-GlnR (Mycobacterium smegmatis)", "experiment": "BLI", "conditions": "37 C, 200 mM KCl, 2 mM Mg2+, BLI: 10 mM HEPES pH 8.0, 2 mM MgCl2, 0.1 mM EDTA, 10 ug/ml BSA, 0.02% Tween-20 (running buffer), EMSA: 2 ng biotin probe in 10 uL, Beyotime …"}}}
{"substance": "Picl (Msm icl promoter)", "values": [{"measurement": "Kd", "setting": "His-PrpR", "result": 171, "unit": "nM"}, {"measurement": "Kd", "setting": "[1]", "result": 33.7, "unit": "nM"}]}
